Results from patent US5541109.
Ends that are not written are not given here.

B1: peptide pL14-1-7-mer (peptide)
peptide: RPLPSPP
modifications: not fully specified
B2: fuse5B 4.3-15 (15 mer) (peptide)
peptide: LALARPLPVPPWRQI
modifications: not fully specified
B3: fuse5B 4.3-12 (12 mer) (peptide)
peptide: LARPLPVPPWRQ
modifications: not fully specified; printed as Leu Ala Arg Pro Leu Pro Val Pro Pro Trp Arg Gln
B4: peptide pL14-1 (peptide)
peptide: QSRPLPSPPKFT
modifications: not fully specified
B5: fuse5B 4.3-7 (7 mer) (peptide)
peptide: RPLPVPP
modifications: not fully specified
B6: pSV40, proline-rich peptide from SV40 T antigen (peptide)
peptide: KPPTPPPEPET
modifications: not fully specified
B7: peptide pL35 (peptide)
peptide: TPAPPPLPPRNV
modifications: also: covalently coupled to AminoLink agarose
B8: peptide pL17-2 (peptide)
peptide: APPAATPPPPRLFRPPA
modifications: also: covalently coupled to AminoLink agarose

Each binder was assayed against ^32 P-labeled GST/PKA fusion protein (Schistosoma japonicum (Blood fluke)) [GST: P08515] (assay: peptide on AminoLink resin, precipitation of 32P-labelled control fusion, counting).

Q: With B1 as the binder, how does the fold lower binding than GST/PKA/Src SH3 read?
A: The fold lower binding than GST/PKA/Src SH3 was 100 fold.

Q: How did the fold lower binding than GST/PKA/Src SH3 turn out when B2 was run?
A: The fold lower binding than GST/PKA/Src SH3 was 100 fold.

Q: For B3, which fold lower binding than GST/PKA/Src SH3 is on record?
A: Its fold lower binding than GST/PKA/Src SH3 is 100 fold.

Q: With B4 as the binder, how does the fold lower binding than GST/PKA/Src SH3 read?
A: The fold lower binding than GST/PKA/Src SH3 was 100 fold.

Q: How did the fold lower binding than GST/PKA/Src SH3 turn out when B5 was run?
A: The fold lower binding than GST/PKA/Src SH3 was 100 fold.

These binders were tested against ^32 P-labeled GST/PKA/Src SH3 fusion protein (PKA site phosphorylated) (Schistosoma japonicum (Blood fluke)) [GST: P08515] (assay: peptide on AminoLink agarose, 32P-labelled fusion, counting).

Q: With B6 as the binder, how does the percent of CPM bound to beads/CPM applied to beads read?
A: The percent of CPM bound to beads/CPM applied to beads was under 1%.

Q: Which percent of CPM bound to beads/CPM applied to beads does the source give for B7 here?
A: The percent of CPM bound to beads/CPM applied to beads was 90%.

Q: B4 was tested. Which percent of CPM bound to beads/CPM applied to beads did it give?
A: The percent of CPM bound to beads/CPM applied to beads was 70%.

Each binder was assayed against radiolabeled GST/PKA/rasGAP SH3 (Schistosoma japonicum (Blood fluke)) [GST: P08515] in the same assay as above.

Q: With B8 as the binder, how does the percent of CPM bound to beads/CPM applied to beads read?
A: The percent of CPM bound to beads/CPM applied to beads was 10%.
